Assay results taken from US20240002479A1 (REGENTS OF THE UNIVERSITY OF MICHIGAN, published 2024).

T1: DENV2 NS1 (dengue virus serotype 2 non-structural protein 1), wild type (Dengue virus 2, UniProt P29990 776-1127)
T1 sequence: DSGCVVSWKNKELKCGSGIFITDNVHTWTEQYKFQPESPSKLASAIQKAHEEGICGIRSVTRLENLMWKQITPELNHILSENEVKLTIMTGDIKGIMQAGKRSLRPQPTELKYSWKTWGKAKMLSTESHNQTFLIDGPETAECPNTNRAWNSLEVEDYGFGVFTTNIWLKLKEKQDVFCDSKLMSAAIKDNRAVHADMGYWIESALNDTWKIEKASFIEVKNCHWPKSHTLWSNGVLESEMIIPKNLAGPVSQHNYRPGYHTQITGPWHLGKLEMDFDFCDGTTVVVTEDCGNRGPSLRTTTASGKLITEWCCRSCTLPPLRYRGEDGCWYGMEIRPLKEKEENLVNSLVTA


Assays:
[1] = target: T1, DENV2 NS1 (dengue virus serotype 2 …); experiment: BLI, NS1 on anti-His tips; full-length 2B7, not Fab
[2] = target: T1, DENV2 NS1 (dengue virus serotype 2 …); experiment: direct ELISA, 2B7 titrated on purified DENV2 NS1, OD450
[3] = target: T1, DENV2 NS1 (dengue virus serotype 2 …); experiment: BLI, NS1 on anti-His tips, n=2 preparations
[4] = target: T1, DENV2 NS1 (dengue virus serotype 2 …); experiment: BLI, NS1 on anti-His tips; Fab, not full-length IgG

| Binder | Kd [1] [nM] | EC50 (read off the curve) [2] [ng/mL] | Kd [3] [nM] | Kd [4] [nM] |
| --- | --- | --- | --- | --- |
| anti-DENV NS1 IgG2b mouse monoclonal antibody (mAb) 2B7 (antibody, V domains shown) VH: EVQLQQSGPELVKPGASVKMSCKASGCTLTNCFMHWMKQKPGQDLEWIGYINPYNDMTKYSENFKGKATLTSDKSSSTAFMELSSLTSEDSAVYYCARGYLLRTGCFDYWGQGTTLTVSS VL: NIVLTQSPASLAVSLGQRATISCRASESVDSYGYSFMHWYQQKPGQPPKVLIYLASNLESGVPARFSGSGSRTDFTLTIDPVEADDAATYYCQQNNENPLTFGAGTKLELKR | 4.8 | ~5 | – | – |
| 2B7 Fab (Fab, V domains shown) VH: EVQLQQSGPELVKPGASVKMSCKASGCTLTNCFMHWMKQKPGQDLEWIGYINPYNDMTKYSENFKGKATLTSDKSSSTAFMELSSLTSEDSAVYYCARGYLLRTGCFDYWGQGTTLTVSS VL: NIVLTQSPASLAVSLGQRATISCRASESVDSYGYSFMHWYQQKPGQPPKVLIYLASNLESGVPARFSGSGSRTDFTLTIDPVEADDAATYYCQQNNENPLTFGAGTKLELK | – | – | 5 to 8 | 8.3 |
